Data as given in publication PMC6336319, “EBNA3C facilitates RASSF1A downregulation through ubiquitin-mediated degradation and promoter hypermethylation to drive B-cell proliferation” (PLoS Pathogens, 2019).

Target: T1, Flag-tagged EBNA3C 366-620 (Epstein-Barr virus, UniProt P03204 366-620)
T1 construct: also called pA3F-EBNA3C 366–620; EBNA3C 366-620aa; source: Saos-2, transfected, in lysate
T1 sequence: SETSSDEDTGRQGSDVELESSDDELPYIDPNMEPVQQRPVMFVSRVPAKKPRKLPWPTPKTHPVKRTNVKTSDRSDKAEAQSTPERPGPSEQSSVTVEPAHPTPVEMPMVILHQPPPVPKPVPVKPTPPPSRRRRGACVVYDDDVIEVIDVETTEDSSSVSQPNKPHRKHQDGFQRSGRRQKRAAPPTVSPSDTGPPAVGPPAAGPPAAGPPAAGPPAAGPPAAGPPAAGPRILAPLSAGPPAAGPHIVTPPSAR
Test: co-IP; Saos-2 cells co-transfected, lysed 48 h later in RIPA buffer (1% NP-40, 10 mM Tris pH 8.0, 2 mM EDTA, 150 mM NaCl); immunoprecipitation with 1 ug anti-Flag antibody, overnight at 4 °C; western blot with anti-Flag and anti-Myc
Conditions: partners not purified

B1: Myc-tagged full-length RASSF1A (Ras association domain family isoform 1A) (natural protein, human, UniProt Q9NS23-2 1-340, looked up)
chain: MSGEPELIELRELAPAGRAGKGRTRLERANALRIARGTACNPTRQLVPGRGHRFQPAGPATHTWCDLCGDFIWGVVRKGLQCAHCKFTCHYRCRALVCLDCCGPRDLGWEPAVERDTNVDEPVEWETPDLSQAEIEQKIKEYNAQINSNLFMSLNKDGSYTGFIKVQLKLVRPVSVPSSKKPPSLQDARRGPGRGTSVRRRTSFYLPKDAVKHLHVLSRTRAREVIEALLRKFLVVDDPRKFALFERAERHGQVYLRKLLDDEQPLRLRLLAGPSDKALSFVLKENDSGEVNWDAFSMPELHNFLRILQREEEEHLRQILQKYSYCRQKIQEALHACPLG
notes: RASSF1A (Ras association domain family isoform 1A), full length, amplified from total RNA by RT-PCR and cloned into pA3M; also called Myc-RASSF1A; pA3M-RASSF1A; source: Saos-2, transfected, in lysate
- signal relative to EBNA3C residues 1-365: ~50%
